Data: article PMC4740771, “Nucleotide-dependent assembly of the peroxisomal receptor export complex” (Scientific Reports, 2016)

T1: HisPex6p (S. cerevisiae, UniProt P33760 1-1030)
T1 construct: Pex6p, type II AAA-ATPase peroxin of yeast; also called single Pex6p; isolated Pex6p; source: E. coli Tuner (DE3), purified (NiNTA-agarose; with HisPex1pGST also GSH-agarose and size exclusion); not shown: His6, N-terminal, kept
T1 sequence (looked up): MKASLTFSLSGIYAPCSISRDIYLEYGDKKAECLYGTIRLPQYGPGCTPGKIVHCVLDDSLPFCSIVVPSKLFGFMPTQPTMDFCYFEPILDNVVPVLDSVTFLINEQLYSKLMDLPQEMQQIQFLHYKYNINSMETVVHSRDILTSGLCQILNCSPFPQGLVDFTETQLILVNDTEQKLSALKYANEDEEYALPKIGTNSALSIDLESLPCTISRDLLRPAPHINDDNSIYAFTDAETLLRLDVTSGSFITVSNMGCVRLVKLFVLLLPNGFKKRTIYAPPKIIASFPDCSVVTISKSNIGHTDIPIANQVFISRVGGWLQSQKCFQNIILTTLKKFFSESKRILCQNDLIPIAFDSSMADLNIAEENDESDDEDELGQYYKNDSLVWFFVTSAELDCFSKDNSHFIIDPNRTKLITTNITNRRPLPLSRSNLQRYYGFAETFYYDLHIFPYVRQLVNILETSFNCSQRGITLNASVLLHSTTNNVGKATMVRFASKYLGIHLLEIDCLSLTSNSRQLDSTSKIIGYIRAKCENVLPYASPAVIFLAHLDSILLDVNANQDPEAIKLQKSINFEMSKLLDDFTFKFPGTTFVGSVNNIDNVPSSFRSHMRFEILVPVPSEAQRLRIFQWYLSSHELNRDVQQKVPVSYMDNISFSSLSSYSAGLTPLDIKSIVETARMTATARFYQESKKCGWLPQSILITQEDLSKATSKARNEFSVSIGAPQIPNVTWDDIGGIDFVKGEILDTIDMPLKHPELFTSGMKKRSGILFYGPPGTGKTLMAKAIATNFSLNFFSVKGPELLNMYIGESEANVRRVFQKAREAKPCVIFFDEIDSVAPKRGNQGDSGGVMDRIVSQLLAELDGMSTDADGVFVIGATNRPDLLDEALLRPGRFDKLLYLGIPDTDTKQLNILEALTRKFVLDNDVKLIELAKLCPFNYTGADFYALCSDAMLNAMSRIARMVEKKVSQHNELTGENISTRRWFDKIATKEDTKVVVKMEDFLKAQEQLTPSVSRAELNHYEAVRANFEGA


Columns and labels:
[1] = target: T2, Pex1/6p-complex (recombinant heterohexameric AAA-complex) (S. cerevisiae, UniProt P24004 1-1043; P33760 1-1030); assay: pull-down; GST-Pex15p(1-315)His incubated with purified proteins, loaded on GSH-agarose, eluted with glutathione; 5 mM ATP; Coomassie and immunoblot, signal intensities of load and eluate; settings: both partners purified
T2 construct: Pex1p of yeast, as the chain of m3; Pex6p of yeast, as the chain of m2; Described as a trimer of Pex1/6p dimers (heterohexamer, about 700 kDa); Isolated in 5 mM ATP or 5 mM ADP as said for each assay; also called Pex1p/Pex6p-complex; wild-type Pex1/6p; source: E. coli Tuner (DE3), cells mixed and lysed, co-purified (NiNTA-agarose, GSH-agarose, thrombin release, size exclusion); not shown: His6, …

HisPex6p = target: T1, HisPex6p; assay: as above; settings: both partners purified
[2] = target: T3, Pex1WB/6p complex (Pex1p E798Q with wild-type Pex6p) (S. cerevisiae, UniProt P24004 1-1043; P33760 1-1030, E798Q); assay: as above; settings: both partners purified
T3 construct: Pex1p of yeast with the Walker B mutation of the D2 domain; Pex6p of yeast, as the chain of m2; also called Pex1WB^E798Q/6p; not shown: His6, N-terminal, kept; GST, C-terminal, cleaved; copies: 3 + 3

[3] = target: T4, Pex1/6pWB complex (wild-type Pex1p with Pex6p E832Q) (S. cerevisiae, UniProt P24004 1-1043; P33760 1-1030, E832Q); assay: as above; settings: both partners purified
T4 construct: Pex1p of yeast, as the chain of m3; Pex6p of yeast with the Walker B mutation of the D2 domain; also called Pex1p/Pex6pWB; Pex6WB mutant complex; not shown: His6, N-terminal, kept; GST, C-terminal, cleaved; copies: 3 + 3

[4] = target: the molecule itself; assay: SEC; as a1 but isolated and run in the presence of 5 mM ADP instead of ATP

binding result [1]	binding result (HisPex6p)	binding result [2]	binding result [3]	Binder	stoichiometry N [4]
binds	binds	binds	binds	GST-Pex15p(1-315)His (domain or fragment, S. cerevisiae, UniProt Q08215 1-315, looked up, Pex15p, tail-anchored peroxisomal membrane protein of S. cerevisiae (genomic DNA of strain UTL-7A), cytosolic part, residues 1 to 315; also called cytosolic domain of Pex15p; source: E. coli BL21 (DE3), purified (Glutathione Agarose 4B, dialysis); not shown: GST, N-terminal, kept; His6, C-terminal, kept) MAASEIMNNLPMHSLDSSLRDLLNDDLFIESDESTKSVNDQRSEVFQECVNLFIKRDIKDCLEKMSEVGFIDITVFKSNPMILDLFVSACDIMPSFTKLGLTLQSEILNIFTLDTPQCIETRKIILGDLSKLLVINKFFRCCIKVIQFNLTDHTEQEEKTLELESIMSDFIFVYITKMRTTIDVVGLQELIEIFIFQVKVKLHHKKPSPNMYWALCKTLPKLSPTLKGLYLSKDVSIEDAILNSIDNKIQKDKAKSKGKQRGVKQKIHHFHEPMLHNSSEEQVKVEDAFNQRTSTDSRLQSTGTAPRKKNNDITV	
				HisPex1p released from HisPex1pGST by thrombin (natural protein, S. cerevisiae, UniProt P24004 1-1043, looked up, Pex1p, type II AAA-ATPase peroxin of yeast; The GST tag held the complex on GSH-agarose during purification and stayed on the column after thrombin cleavage; source: E. coli Tuner (DE3), co-purified with HisPex6p (NiNTA-agarose, GSH-agarose, thrombin release); not shown: His6, N-terminal, kept; GST, C-terminal, cleaved) MTTTKRLKFENLRIQFSNAIVGNFLRLPHSIINVLESTNYAIQEFGIAVHSHNSDIPIVHLGWDGHDSGSSENVVLINPVLATVYDLNQKSPLVDLYIQRYDHTHLATEVYVTPETSDDWEIIDANAMRFQNGEILHQTRIVTPGETLICYLEGIVTKFKIDRVEPSMKSARITDGSLVVVAPKVNKTRLVKAEYGHSNKTILKNGAIQLLKKVILRSTVCKMDFPKDNLFVVYISDGAQLPSQKGYASIVKCSLRQSKKSDSDNKSVGIPSKKIGVFIKCDSQIPENHIALSSHLWDAFFTHPMNGAKIKLEFLQMNQANIISGRNATVNIKYFGKDVPTKSGDQYSKLLGGSLLTNNLILPTEQIIIEIKKGESEQQLCNLNEISNESVQWKVTQMGKEEVKDIIERHLPKHYHVKETGEVSRTSKDEDDFITVNSIKKEMVNYLTSPIIATPAIILDGKQGIGKTRLLKELINEVEKDHHIFVKYADCETLHETSNLDKTQKLIMEWCSFCYWYGPSLIVLDNVEALFGKPQANDGDPSNNGQWDNASKLLNFFINQVTKIFNKDNKRIRVLFSGKQKTQINPLLFDKHFVSETWSLRAPDKHARAKLLEYFFSKNQIMKLNRDLQFSDLSLETEGFSPLDLEIFTEKIFYDLQLERDCDNVVTRELFSKSLSAFTPSALRGVKLTKETNIKWGDIGALANAKDVLLETLEWPTKYEPIFVNCPLRLRSGILLYGYPGCGKTLLASAVAQQCGLNFISVKGPEILNKFIGASEQNIRELFERAQSVKPCILFFDEFDSIAPKRGHDSTGVTDRVVNQLLTQMDGAEGLDGVYILAATSRPDLIDSALLRPGRLDKSVICNIPTESERLDILQAIVNSKDKDTGQKKFALEKNADLKLIAEKTAGFSGADLQGLCYNAYLKSVHRWLSAADQSEVVPGNDNIEYFSINEHGRREENRLRLKTLLQQDVVHETKTSTSAASELTAVVTINDLLEACQETKPSISTSELVKLRGIYDRFQKDRNGEMPNGENSIDIGSRLSLM	3
